According to paper PMC11822720:

Target: Centrolobium microchaete seed lectin (Centrolobium microchaete)
Test: crystal structure; CML co-crystallised with 5 mM MDM; 200 mM ammonium sulfate, 100 mM HEPES pH 7.5, 25% PEG 3350; space group C121, one dimer per asymmetric unit; dimer also checked by PISA

stoichiometry N: 2
Substance: Centrolobium microchaete seed lectin (natural protein)
